Reference: patent US6210671A, “Humanized antibodies reactive with L-selectin” (Protein Design Labs, Inc., priority 1995, dated 2001)

B1: mouse DREG-55: mouse monoclonal antibody that binds to human L-selectin (Kishimoto et al.); CDR donor (antibody, V domains shown)
VH: MNFGSSLIFLVLVLKGVQCEVKLVESGGGLVKPGGSLKLACAASGFTFSTYAMSWVRQTPEKRLEWVASISTGGSTYYPDSVKGRFTISRDNARNILYLQMSSLRSEDTAMYYCARDYDGYFDYWGQGTTLTVSS
VL: METDTILLWVLLLWVPGSTGDIVLTQSPASLSVSLGERASISCKASQSVDYDGDSYMNWYQQKPGQPPKLLIYAASNLESGIPARFSGSGSGTDFTLNIHPVEEEDAATYYCQQSNEDPWTFGGGTKLEIK
B2: humanized DREG-200: humanized anti-L-selectin antibody, mouse DREG-200 CDRs in human Eu framework, sequences in FIG. 2; isotype not stated at these places (antibody, V domains shown)
VH: MGWSCIILFLVATATGVHSQVQLVQSGAEVKKPGSSVKVSCKASGYTFTSYVMHWVRQAPGQGLEWIGYIYPYNDGTKYNEKFKGRVTITSDESTNTAYMELSSLRSEDTAVYYCAREEYGNYVRYFDVWGQGTLVTVSS
VL: MVFTPQILGLMLFWISASRGDIQMTQSPSTLSASVGDRVTITCKSSQSLLNSSNQKNYLAWYQQKPGKAPKLLVYFASTRESGVPDRFIGSGSGTDFTLTISSLQPEDFATYFCHQHYSTPLTFGQGTKVEVK
B3: humanized DREG-55: humanized anti-L-selectin antibody, mouse DREG-55 CDRs in human Gal framework, sequences in FIG. 7 (antibody, V domains shown)
VH: MNFGSSLIFLVLVLKGVQCEVQLVESGGGLVQPGGSLRLSCAASGFTFSTYAMSWVRQAPGKGLEWVASISTGGSTYYPDSVKGRFTISRDNAKNTLYLQMNSLRAEDTAVYYCARDYDGYFDYWGQGTLVTVSS
VL: METDTILLWVLLLWVPGSTGDIQMTQSPSSLSASVGDRVTITCKASQSVDYDGDSYMNWYQQKPGKAPKLLIYAASNLESGIPSRFSGSGSGTDFTLTISSLQPEDFATYYCQQSNEDPWTFGQGTKVEIK

What was measured:
[1] = system: binding of human neutrophils to IL-1 stimulated human umbilical cord endothelial cells (HUVEC); test: Adhesion of human neutrophils to IL-1 stimulated HUVEC; format: cell-based; settings: HUVEC stimulated with 20 ng/ml IL-1β for 4 hr; 4° C., 30 min
Experimental: FIG. 5A. Binding of human neutrophils to IL-1 stimulated human umbilical cord endothelial cells (HUVEC). The neutrophils were first treated with irrelevant control antibody, mouse DREG-200 antibody, or humanized IgG1 DREG-200 antibody, or left untreated, as indicated.
The ability of the mouse and humanized DREG-200 antibodies to block the adhesion of human neutrophils to endothelial cells was determined using a modification of the assay method of Hallmann et al., Biochem. Biophys. Res. Comm. 174:236 (1991). Specifically, human umbilical cord endothelial cells (HUVEC; from Clonetics, San Diego) were grown to confluence in EGM medium (Clonetics) in Lab-Tek 8-chamber slides (Nunc, Naperville, Ill.). The HUVEC cells were stimulated with 20 ng/ml IL-1β (R&D Systems, Minneapolis, Minn.) for 4 hr before use. Neutrophils were isolated by density gradient centrifugation from buffy coats that had been cleared of erythrocytes by dextran sedimentation, and then adjusted to 10^7 per ml. The neutrophils (100 μl) were pre-incubated for 20 minutes on ice with varying concentrations of antibody (in 100 μl RPMI). The HUVEC slides were washed free of IL-1β and placed on a rotary shaker (100 rpm) at 4° C. […] Neutrophil adherence was quantified by counting the neutrophils attached to a defined area of the endothelial cell monolayer with a microscope.

rabbit leukocytes = settings: reported in the literature; cited from earlier work
[2] = system: binding of human lymphocytes to peripheral lymph node high endothelial venules; settings: Kishimoto et al.; cited from earlier work
[3] = system: binding of human neutrophils to stimulated human umbilical vein endothelial cells; settings: Kishimoto et al., Blood 78:805 (1991); cited from earlier work
L-selectin [4] = test: Competitive binding of mouse and humanized DREG-55 to CHO L-selectin cells; settings: 2 hr at 4° C.
Experimental: FIG. 9: Competitive binding of mouse and humanized DREG-55 antibodies to CHO^L-selectin cells expressing L-selectin. Increasing concentrations of cold competitor antibody were incubated with the cells in the presence of radiolabeled tracer humanized DREG-55 antibody, and the ratio of bound/free radioactivity was determined.
The affinity of the humanized DREG-55 antibody for L-selectin was determined by competition with the radio-iodinated humanized DREG-55 antibody (FIG. 9). Purified humanized DREG-55 antibody was labeled with Na^125 I (Amersham, Arlington Heights, Ill.) using lactoperoxidase to 4 mCi/mg of protein (Marchalonis, Biochem. J. 113, 299 (1969)). CHO^L-selectin cells, which were obtained by transfecting the L-selectin genes into the host CHO cells, were used as a source for L-selectin. […] Cells were then washed and centrifuged, and their radioactivities measured. The ratio of bound and free tracer antibody were calculated. The binding affinities were calculated according to the methods of Berzofsky and Berkower (J. A. Berzofsky and I. J. Berkower, in Fundamental Immunology (ed. W. E. Paul), Raven Press (New York), p. 595 (1984), which is incorporated herein by reference).

human L-selectin = test: Competitive binding of mouse and humanized DREG-200 antibodies against 125I-labeled mouse DREG-200 on transfected cells; settings: competition with radio-iodinated mouse DREG-200; 1 hr at 4° C.
Experimental: FIG. 4. Competitive binding of mouse and humanized IgG1 and IgG4 DREG-200 antibodies. The target cells were L2-1 cells, a mouse pre-B cell line, that was transfected with a human L-selectin gene and thus expresses human L-selectin (Berg et al., Biochem. Biophys. Res. Comm. 184:1048 (1992)). 5×10^5 cells were incubated with 3 ng of ^125 I-labeled tracer mouse antibody (2 μCi/μg), together with increasing amounts of mouse or humanized competitor antibody as indicated in 0.2 ml of binding buffer (PBS+2% FBS+0.1% azide) for 1 hr at 4° C. Cells were washed and pelleted, and their bound radioactivity measured. The concentrations of bound and free tracer antibody were calculated.
The affinity of the humanized DREG-200 antibodies for L-selectin were determined by competition with the radio-iodinated mouse DREG-200 antibody (FIG. 4). The binding affinities were calculated according to the methods of Berzofsky (J. A. Berzofsky and I. J. Berkower, in Fundamental Immunology (ed. W. E. Paul), Raven Press (New York), 595 (1984), which is incorporated herein by reference in its entirety for all purposes).

[5] = system: binding of human PBMC to peripheral lymph node high endothelial venules; test: Adhesion of human PBMC to peripheral lymph node high endothelial venules; format: cell-based; settings: frozen sections of mouse peripheral lymph nodes; 25 minutes
Experimental: FIG. 10: Inhibition of binding of human PBMC to peripheral lymph node high endothelial venules by humanized DREG-55 (HuDREG-55) and humanized DREG-200 (HuDREG-200). The average number of cells bound per HEV for each antibody treatment is shown. Error bars show the standard errors of the values calculated for three sections.
Human peripheral blood mononuclear cells were isolated and cultured for 2 days at 37° C. in 10% FBS/DMEM. After washing and resuspending in assay medium (5% FBS/DMEM/10 mM HEPES, pH 6.9) at 7×10^6 /ml in the presence of the indicated concentrations of humanized DREG-55, humanized DREG-200 or negative control antibody, cells were applied to frozen sections of mouse peripheral lymph nodes (PLN) while rotating at 50 rpm (as described in Streeter et al., Cell 107, 1853 (1988)). After 25 minutes, non-adherent cells were gently dumped and adherent cells fixed to sections by immersion in 1.5% glutaraldehyde-PBS. Slides were counterstained with thionine and the number of cells bound to each high endothelial venule (HEV) (n=60) in triplicate sections was determined microscopically. The average number of cells bound per HEV for each treatment was calculated.

cat leukocytes = settings: reported in the literature; cited from earlier work
L-selectin [6] = test: Flow cytometry binding to L1-2 L-selectin transfectants; settings: 1 hour incubation; FITC-conjugated goat anti-human Ig
Experimental: FIG. 8: Binding of humanized DREG-55 to L1-2^L-selectin transfectants compared to binding of control antibody as analyzed by flow cytometry. Fluorescence intensity is indicated on the x-axis.
After washing, cells were incubated in a 1:250 dilution of FITC-conjugated goat anti-human Ig, washed, then analyzed for fluorescence by flow cytometry (FACS).

| Molecule | blocking of binding of human lymphocytes to peripheral lymph node high endothelial venules [2] | blocking of binding of human neutrophils to stimulated human umbilical vein endothelial cells [3] | adhesion of human PBMC to lymph node high endothelial venules [5] | further results |
| --- | --- | --- | --- | --- |
| mouse DREG-200: mouse monoclonal antibody that binds to human L-selectin (Kishimoto et al.); CDR donor [reference compound] | partially or completely block | partially or completely block | – | blocking of binding of neutrophils to HUVEC [1]: effectively blocked; cross-reactivity with rabbit leukocytes (rabbit leukocytes): cross-reactivity |
| B1 | partially or completely block | partially or completely block | – | affinity for L-selectin compared with humanized DREG-55 (L-selectin [4]): no significant difference |
| B2 | – | – | block adhesion | affinity relative to the mouse DREG-200 antibody (human L-selectin): ≤ 2 fold; cross-reactivity with cat leukocytes (cat leukocytes): cross-reactivity |
| B3 | – | – | block adhesion | binding to L1-2 L-selectin transfectants by flow cytometry (L-selectin [6]): reacts |
